Test results: paper PMC7343536 (Cell, 2017)
Like-named read-outs stand apart in the source and are kept apart here. No end group written: not given here.

Experiments:
[1] = target: T1, Ssb2 (purified recombinant) (S. cerevisiae, UniProt P40150 1-613); assay: stopped-flow fluorescence, peptide release
[2] = target: T1, Ssb2 (purified recombinant); assay: stopped-flow fluorescence, peptide release; remark: listed apart in the source

T1 sequence (P40150 whole entry): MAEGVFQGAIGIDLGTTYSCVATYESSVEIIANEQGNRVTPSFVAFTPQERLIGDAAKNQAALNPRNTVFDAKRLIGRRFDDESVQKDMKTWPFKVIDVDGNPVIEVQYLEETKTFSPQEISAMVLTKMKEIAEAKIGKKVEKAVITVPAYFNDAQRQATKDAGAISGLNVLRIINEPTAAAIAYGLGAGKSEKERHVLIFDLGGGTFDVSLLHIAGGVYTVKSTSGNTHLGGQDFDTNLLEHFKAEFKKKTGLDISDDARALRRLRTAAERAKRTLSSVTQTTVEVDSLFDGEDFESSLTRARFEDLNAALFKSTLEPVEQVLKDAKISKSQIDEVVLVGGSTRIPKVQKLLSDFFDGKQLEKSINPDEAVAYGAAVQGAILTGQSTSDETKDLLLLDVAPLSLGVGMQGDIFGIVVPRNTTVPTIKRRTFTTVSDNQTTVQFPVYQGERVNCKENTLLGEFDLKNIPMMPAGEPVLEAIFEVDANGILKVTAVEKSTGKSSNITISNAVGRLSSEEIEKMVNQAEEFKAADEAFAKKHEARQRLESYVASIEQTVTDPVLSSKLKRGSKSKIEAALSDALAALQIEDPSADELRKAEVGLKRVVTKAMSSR

half-life of the complex [1]: 7.7 ± 6.7 min
half-life of the complex [2]: 3.9 ± 0.2 h
B1: IAANS labeled peptide substrate σ32-Q132-Q144-C (peptide)
peptide: QRKLFFNLRKTKQC
modifications: not fully specified (residue 14); also: labeled with IAANS, site not given here
